Test results: paper PMC6139572

Columns and labels:
[1] = target: isolated native thin filaments (UniProt P68032)
[2] = target: myosin S2Δ, the first 126 amino acids of myosin sub-fragment 2 (rat heart) (rat); test: MST; as a2 (pH 7, 50 mmol/liter KCl); 25 °C
[3] = target: myosin S2Δ, the first 126 amino acids of myosin sub-fragment 2 (rat heart) (rat); test: MST; as a2 (pH 7, 50 mmol/liter KCl); 30 °C
[4] = target: myosin S2Δ, the first 126 amino acids of myosin sub-fragment 2 (rat heart) (rat); test: MST; as a2 but 180 mmol/liter KCl; pH 7; 30 °C
[5] = target: myosin S2Δ, the first 126 amino acids of myosin sub-fragment 2 (rat heart) (rat); test: MST; as a2 (pH 7, 50 mmol/liter KCl); biphasic binding curve of Fig. S3, the temperature of the curve is not given
[6] = target: isolated native thin filaments (UniProt P68032); test: co-sedimentation; high-velocity co-sedimentation of C1mC2 constructs with isolated native thin filaments; performed as described in ref. 15
[7] = target: myosin S2Δ, the first 126 amino acids of myosin sub-fragment 2 (rat heart) (rat); test: MST; Monolith NT.115; 100 nmol/liter Alexa 647–myosin S2Δ fixed, cMyBP-C construct titrated; 20 mmol/liter MOPS pH 7, 1 mmol/liter EDTA, 50 mmol/liter KCl, 1 mmol/liter DTT, 0.05% Tween 20; 21 °C

Row | isometric force of demembranated rat ventricular trabeculae in relaxing solution (pCa 9) with 40 μmol/liter C1mC2, as percent of that during full Ca2+ activation [1] [%] | Kd [2] [µM] | Kd [3] [µM] | Kd [4] [µM] | Kd of the additional low-affinity binding interaction [5] [µM] | Kd [6] [µM] | Kd [7] [µM] | Substance
1 | 57 | 58.5 | 21.3 | 364 | 400 | 23 | 106 | C1mC2, unphosphorylated N-terminal fragment of rat cardiac myosin-binding protein-C containing the Ig-domains C1 and C2 and the intervening m-domain (domain or fragment)
2 | – | – | – | – | – | 57 | – | PKA tris-phosphorylated C1mC2 of rat cardiac myosin-binding protein-C (domain or fragment)
